One substance from patent US20060263855A1 can be followed below.

This assay has as its target α-Hemoglobin (αHb) (UniProt P69905). Kind of assay: cell-based or functional assay.
UniProt P69905, sequence (P69905 2-142): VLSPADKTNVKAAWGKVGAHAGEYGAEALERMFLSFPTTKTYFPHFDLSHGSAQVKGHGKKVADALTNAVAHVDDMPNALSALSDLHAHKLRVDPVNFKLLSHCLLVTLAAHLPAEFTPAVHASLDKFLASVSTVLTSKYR

Turning to “α-hemoglobin stabilizing protein (AHSP) (from UniProt Q9NZD4 1-102)”, the Acceleration of rate of αHb oxidation by AHSP (ratio of oxidation rate constants) was determined as 6.2.
